Target: T1, MeCP2 (Homo sapiens, UniProt P51608)
T1 construct: GST; purchased Prospec
Assay: In vitro SUMOylation assay with recombinant proteins
Assay type: biochemical
Conditions: E1, E2, PIAS1 and MeCP2 proteins added; FIG. 1a
Method: In vitro SUMOylation assay was performed by using the SUMO link kit according to the manufacturer's instructions (Active Motif, Carlsbad, Calif.). Recombinant GST-tagged MeCP2 protein (Prospec, East Brunswick, N.J.), His-tagged PIAS1 protein purified from His-bind resin (Novagen, Wis.), and GST-tagged SENP1 protein (Enzo, Ann Arbor, Mich.) were used for assays at 30° C. for 3 h and then boiled in Laemmli sample buffer at 95° C. for 10 min. The in vitro SUMOylation product was subject to 8% SDS-PAGE followed by transferring onto the NC membrane. The membrane was immunoblotted with anti-His and anti-GST antibodies.

T1 sequence (P51608 whole entry, species assumed): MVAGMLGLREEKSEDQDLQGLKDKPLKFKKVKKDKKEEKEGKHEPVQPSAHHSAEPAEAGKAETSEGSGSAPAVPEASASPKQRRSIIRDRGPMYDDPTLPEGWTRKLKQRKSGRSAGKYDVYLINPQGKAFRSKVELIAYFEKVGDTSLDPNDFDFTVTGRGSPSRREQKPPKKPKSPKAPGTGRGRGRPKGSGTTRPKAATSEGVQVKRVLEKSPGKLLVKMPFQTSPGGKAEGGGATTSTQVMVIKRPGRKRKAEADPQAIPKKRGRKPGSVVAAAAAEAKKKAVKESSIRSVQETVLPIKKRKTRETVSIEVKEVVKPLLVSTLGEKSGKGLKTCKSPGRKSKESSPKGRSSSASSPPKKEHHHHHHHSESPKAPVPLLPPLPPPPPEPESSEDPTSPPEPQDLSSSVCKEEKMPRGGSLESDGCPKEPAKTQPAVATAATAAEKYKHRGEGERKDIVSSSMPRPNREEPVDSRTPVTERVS

MeCP2 SUMOylation: blocked
B1: SENP1: an enzyme that removes the sumo molecule from sumo-conjugated protein (protein, UniProt Q9P0U3 1-644, looked up)
Sentrin-specific protease 1: MDDIADRMRMDAGEVTLVNHNSVFKTHLLPQTGFPEDQLSLSDQQILSSRQGHLDRSFTCSTRSAAYNPSYYSDNPSSDSFLGSGDLRTFGQSANGQWRNSTPSSSSSLQKSRNSRSLYLETRKTSSGLSNSFAGKSNHHCHVSAYEKSFPIKPVPSPSWSGSCRRSLLSPKKTQRRHVSTAEETVQEEEREIYRQLLQMVTGKQFTIAKPTTHFPLHLSRCLSSSKNTLKDSLFKNGNSCASQIIGSDTSSSGSASILTNQEQLSHSVYSLSSYTPDVAFGSKDSGTLHHPHHHHSVPHQPDNLAASNTQSEGSDSVILLKVKDSQTPTPSSTFFQAELWIKELTSVYDSRARERLRQIEEQKALALQLQNQRLQEREHSVHDSVELHLRVPLEKEIPVTVVQETQKKGHKLTDSEDEFPEITEEMEKEIKNVFRNGNQDEVLSEAFRLTITRKDIQTLNHLNWLNDEIINFYMNMLMERSKEKGLPSVHAFNTFFFTKLKTAGYQAVKRWTKKVDVFSVDILLVPIHLGVHWCLAVVDFRKKNITYYDSMGGINNEACRILLQYLKQESIDKKRKEFDTNGWQLFSKKSQEIPQQMNGSDCGMFACKYADCITKDRPINFTQQHMPYFRKRMVWEILHRKLL
modifications: GST tag
notes: an enzyme that removes the sumo molecule from sumo-conjugated protein

Reference: patent publication US20170290886A1, “TREATMENT OF NEURODEVELOPMENTAL DISORDERS” (Academia Sinica, priority 2016, published 2017)
